Reference: patent US11730743B2, “Protection of cells from degeneration and treatment of geographic atrophy” (University of Kentucky Research Foundation, priority 2012, dated 2023)

Target: T1, Caspase-1 (Homo sapiens, UniProt P29466)
T1 construct: endogenous in cells; host or cells: primary human RPE cells; also THP-1 and HeLa cells
T1 sequence (P29466 120-297 limits assumed): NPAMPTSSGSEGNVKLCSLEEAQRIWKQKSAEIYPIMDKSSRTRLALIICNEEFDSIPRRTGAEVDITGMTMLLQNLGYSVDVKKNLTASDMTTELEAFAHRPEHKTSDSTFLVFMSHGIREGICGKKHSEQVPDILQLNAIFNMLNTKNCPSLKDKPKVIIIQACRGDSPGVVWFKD
T1 sequence (P29466 317-404 limits assumed): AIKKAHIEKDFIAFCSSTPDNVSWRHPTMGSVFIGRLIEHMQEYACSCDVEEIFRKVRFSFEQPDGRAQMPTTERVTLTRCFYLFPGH
Experiment: Caspase-1 activation in cultured cells (western blot p20, Caspalux1 substrate cleavage)
Type: cell-based
Conditions: human RPE cells
Protocol: Protein abundance and activity. Protein abundance was assessed by Western blot analysis using primary antibodies recognizing Caspase-1 (1:500; Invitrogen), pIRAK1 (1:500; Thermo Scientific), pIRAK4 (1:500, Abbomax, Inc), PYCARD (1:200, Santa Cruz Biotechnology), NLRP3 (1:500, Enzo Life Sciences) and Vinculin (1:1,000; Sigma-Aldrich). Caspase-1 activity was visualized using Caspalux1 E1D2 (OncoImmunin) reagent according to the manufacturer's instructions.
Western blotting. Tissues or cells were homogenized in lysis buffer (10 mM Tris base, pH 7.4, 150 mM NaCl, 1 mM EDTA, 1 mM EGTA, 1% Triton X-100, 0.5% NP-40, protease and phosphatase inhibitor cocktail (Roche)). Protein concentrations were determined using a Bradford assay kit (Bio-Rad) with bovine serum albumin as a standard. Proteins (40-100 μg) were run on NuPAGE Bis-Tris gels (Invitrogen) and transferred to Immun-Blot PVDF membranes (Bio-Rad). Cells were scraped in hot Laemmli buffer (62.5 mM Tris base, pH 6.8, 2% SDS, 5% 2-Mercaptoethanol, 10% Glycerol, 0.01% Bromophenol Blue). Samples were boiled and run on 4-20% NuPAGE Tris-Glycine gels (Invitrogen). The transferred membranes were blocked for 1 h at RT and incubated with antibodies against human Caspase-1 (1:500; Invitrogen), mouse Caspase1 (1:500; MBL), NLRP3 (1:1000; Enzo Life Sciences), PYCARD (1:1000, RayBiotech), phospho-IRAK1 (S376) (1:500, Thermo Scientific), phospho-IRAK4 (T345) (1:500, AbboMax), DICER1 (1:2,000; Bethyl), MyD88 (1:1,000; Cell Signaling), and mouse IL-18 (1:200; MBL) at 4° C. overnight. Protein loading was assessed by immunoblotting using an anti-Vinculin antibody (1:1,000; Sigma-Aldrich). The secondary antibodies were used (1:5,000) for 1 h at RT. […]
Caspase-1 activity. […] Caspalux1E1D2 signal was quantified reading the fluorescence (excitation 552 nm, emission 580 nm) using a Synergy 4 reader (Biotek). Quantification of fluorescence from images was performed by converting images into grayscale in Adobe Photoshop CS5, and measuring the integrated density of black and white images using ImageJ software (NIH) (Bogdanovich et al., 2008).

MyD88 inhibitory peptide: peptide inhibitor of MyD88 homodimerization IMG-2005 (IMGENEX)
Alu RNA-induced fluorescent substrate cleavage (Caspase-1 activity) (Caspalux1): did not reduce | Alu RNA-induced Caspase-1 cleavage (p20 subunit) (western blot): did not reduce
